The DeepSol protein solubility set

Assay: soluble on expression in E. coli; label from the status in PepcDB or PDB records

Sequence | soluble on expression in E. coli
MGSSHHHHHHSSGLVPRGSPQPPADEQPEPRTRRRAYLWCKEFLPGAWRGLREDEFHISVIRGGLSNMLFQCSLPDTTATLGDEPRKVLLRLYGAILQMRSCNKEGSEQAQKENEFQGAEAMVLESVMFAILAERSLGPKLYGIFPQGRLEQFIPSRRLDTEELSLPDISAEIAEKMATFHGMKMPFNKEPKWLFGTMEKYLKEVLRIKFTEESRIKKLHKLLSYNLPLELENLRSLLESTPSPVVFCHNDCQEGNILLLEGRENSEKQKLMLIDFEYSSYNYRGFDIGNHFCEWMYDYSYEKYPFFRANIRKYPTKKQQLHFISSYLPAFQNDFENLSTEEKSIIKEEMLLEVNRFALASHFLWGLWSIVQAKISSIEFGYMDYAQARFDAYFHQKRKLGV | soluble
TGEKTILKLKRSCLKPELRRIKAIVGLGLSGFTMAITNCTVQIMCNATLQAYGGDLYVGVMTVVNSVREVASLPVSGITQSAQPVLGFNYGAGEYGRVKKA | not soluble
DIVEAQPSHPDKLLEVPLGRDISGMVQTADLSKMPHLLIAGSTGSGKSVAINGIITGILMQAKPHEVKLMMIDPKMVELNVYNGIPHLLTPVVTNPRKAAQALQKVVQEMEFRYEKFAATGVRNITGYNQLIQQKNAEDGENRPILPFIVVIVDELADLMMVASNEVEDAIIRLAQMARAAGIHMILATQRPSV | not soluble
SNAMAKITVGTENQAPIEIYYEDHGTGKPVVLIHGWPLSGRSWEYQVPALVEAGYRVITYDRRGFGKSSQPWEGYEYDTFTSDLHQLLEQLELQNVTLVGFSMGGGEVARYISTYGTDRIEKVVFAGAVPPYLYKSEDHPEGALDDATIETFKSGVINDRLAFLDEFTKGFFAAGDRTDLVSESFRLYNWDIAAGASPKGTLDCITAFSKTDFRKDLEKFNIPTLIIHGDSDATVPFEYSGKLTHEAIPNSKVALIKGGPHGLNATHAKEFNEALLLFLKD | soluble
MGSDKIHHHHHHMEINTEIAIAWMSARQGKVSYSMDYRDGPNSYDCSSSVYYALRSAGASSAGWAVNTEYMHDWLIKNGYELIAENVDWNAVRGDIAIWGMRGHSSGAGGHVVMFIDPENIIHCNWANNGITVNNYNQTAAASGWMYCYVYRLKSGASTQGKSLDTLVKETLAGNYGNGEARKAVLGNQYEAVMSVINGKTTTNQKTVDQLVQEVIAGKHGNGEARKKSLGSQYDAVQKRVTELLKKQPSEPFKAQEVNKPTETKTSQTELTGQATATKEEGDLSFNGTILKKAVLDKILGNCKKHDILPSYALTILHYEGLWGTSAVGKADNNWGGMTWTGQGNRPSGVTVTQGSARPSNEGGHYMHYASVDDFLTDWFYLLRAGGSYKVSGAKTFSEAIKGMFKVGGAVYDYAASGFDSYIVGASSRLKAIEAENGSLDKFDKATDIGDGSKDKIDITIEGIEVTINGITYELTKKPV | not soluble
MATADVKSTVPHMDMDRGGAFDFSNCIRNQAMCKMGGKAPKLTSTGTTIVAVAFKGGLVMGADSRATAGNIIADKHCEKVHKLTESIYACGAGTAADLDQVTKMLSGNLRLLELNTGRKARVITALRQAKQHLFNYQGYIGAYLLIGGVDPTGPHLYMCSANGTTMAFPFTAQGSGSYAAITILERDFKVDMTKDEAEKLVQRALEAGMHGDNASGNSLNLVIIEPSETVFKGPIVPEFCKRPEPNDLVYKFQAGATKVLKHKTYKYDVVESMDITH | not soluble
MDAALRRLQTFLSTIPQCDHTKYEGHYQQVFYIIFSLLGYYVDVEVRTSRGRVDVVLRTEATLYVMELKLDKNATVAMEQINLKNYPERFALCGLPVVKVAVNFDSESGTLGDWMIEK | not soluble
MAHHHHHHMADDILQCVHKEFKYVLISSDINDQIKELTFSGSERKFQGVLASYFRRIIFDEKGKNELKEVIKEKLKVSKENDNGGTERAGAEQEGDQNGQKSGQPNGAELNASAITPDLINNAVESSQTYQIIPLTIPTEKTNFFAVNCYIDDIGRIKKLPYNSRASRICSTEIYGDAFLSKTYDNEDFRRCDFTISEYEQFLQNPPKAENRYPPSDTMCVSG | soluble
MDSINTRIAEELSALPSGRVQPQQVAAAVALLDEGSTVPFIARYRKEVTGSLDDTQLRMLEERLRYLRELEERRGAILASIEEQGKLTPELARDIKLADTKTRLEDLYLPYKQKRRTKGQIALEAGLGALADALFDDPTLVPESEAARFVDAEKGFADVKAVLEGAKYILMERFAEDATLLDKLRVFMKNEATLTARVVPGKEQEGAKFSDYFEHDEPLKSAPSHRALAIFRGRNEGVLSASLKVGEEAPGTLHPCEVMIAERFGLSNQGRAADKWLAEVVRWTWKVKLYTHLETDLFGELRDGAEDEAISVFARNLHDLLLAAPAGPRATLGLDPGLRTGVKVAVVDATGKLLDTATVYPHAPKNQWDQTLAVLAALCAKHQVELIAIGNGTASRETDKLAGELIKKYPGMKLTKIMVSEAGASVYSASELAAKEFPELDVSLRGAVSIARRLQDPLAELVKIEPKSIGVGQYQHDVSQLKLARSLDAVVEDCVNAVGVDVNTASAALLARISGLNSTLAQNIVAHRDANGAFRTRDELKKVSRLGEKTFEQAAGFLRVMNGDNPLDASAVHPETYPLVQRIAADTERDIRSLIGDSAFLKRLDPKKFTDETFGLPTVTDILKELDKPGRDPRPEFKTAEFQEGVESLKDLKPGMVLEGVVTNVTNFGAFVDIGVHQDGLVHISALSEKFVKDPYEVVKAGDIVKVKVMEVDIPRNRVGLSMRMSDTPGEKVEGQRGGRPTGSGQPRQERGAPRGQSAPPANNAMAALFANAKQLKKKHHHHHH | soluble
MGSDKIHHHHHHMIDSHAHLISADVERYPTSPLSGELEPGALDNPVTAERLLALMDEQGIERALAVQRAHIYGFNNAYVCDAAQRYPERLRALGMVDALDQNIREQVRHWVGERGAVGIRLTEPFKGADPSWFASPEAMAAWETVSELGGSVRLHFYRWNREAALKALKPVLQRFPQTTVVLDHFSNIVGESGAPDHGVDATLLEMVEHSNVYLLYSMINLGKLAAAQMAAAPMVERVVREFGADRVMWGSDVAQSKGSYAQMVALAKESVSLLSETDQRKVLHDTAHAVYWGTR | not soluble
MAAEEGAVIACHTKQEFDTHMANGKDTGKLVIIDFTASWCGPCRVIAPVFAEYAKKFPGAIFLKVDVDELKDVAEAYNVEAMPTFLFIKDGEKVDSVVGGRKDDIHTKIVALMGSAST | soluble
GMSPQSMLTSPQHPRRTTMVISHGTLSASAEHAAHLRQLLVHIAQATRQEDGCLLYLVSEDLSQPGHFLITEHWDNLGAMHTHLALPGVTQAIDALKHLNVTDLKITAYEAGEAINIMG | soluble
MGSDKIHHHHHHMRICPVPRSAPAGCARIRCLRRCAVFGRSCPKLGLWSSGARTLSHPPCADVNWPNTLCAQHVACALRSHCLTLRAPHALLGRAVRKAGDLMTTAGFQSIDAVQSELSEAGYVCGRALATVVFLSTRLGRPLFLEGEAGVGKTEIAKALAAVTGRPLIRLQCYEGLDAASAVYEWNFAAQMMAIRMAESAGQSDREALQAELFSQDYLIARPLLQAMQPDARGTPILLIDELDRTDAPFEAFLLEALSDFQVTIPELGTIRAPEPPMVILTSNRTREVHDALKRRCLYHWVDYPDFDRELEILTAQVPTASEALSRQVVAFVQSLRTEDLFKKPGVAETIDWANCLLALDVVNLSPETIADTLGALLKYQDDIARLQGSEAKRLLDEARSLLQEH | not soluble
SLLPSFFPCCRCKWSATGCGTCSTQDCEGICKMTSGEQAKTPLQAPILLTNVKPVGFGKGASQSSTDILIGGDGKIAAVGSALQAPADTQRIDAKGAFISPGWVDLHVHIWHGGTDISIRPSECGAERGVTTLVDAGSAGEANFHGFREYIIEPSRERIKAFLNLGSIGLVACNRVPELRDIKDIDLDRILECYAENSEHIVGLKVRASHVITGSWGVTPVKLGKKIAKILKVPMMVHVGEPPALYDEVLEILGPGDVVTHCFNGKSGSSIMEDEDLFNLAERCAGEGIRLDIGHGGASFSFKVAEAAIARGLLPFSISTDLHGHSMNFPVWDLATTMSKLLSVDMPFENVVEAVTRNPASVIRLDMENRLDVGQRADFTVFDLVDADLEATDSNGDVSRLKRLFEPRYAVIGAEAIAASRYIPRARKLVRHSHGYSWR | soluble
MEIRYAKEEEIESIKDIWSYCFNDTESFMKYYFNDKYKSENTVVALDEGKIISSLQLNQYKLLLNSKVYNTSYVVGVSTLPEGRGAGYMNKVMKFTLNELYKKGQLVSILMPIDYRLYRRFGYEHCYDQIEYTINTDDLKNFKSSGKMIKSNLSQIDDLIQIDRTFLNEVNGNVLKDEHYYENLFKEIQSEDGFLYIHEGNEKDGYIVYFLQEDKMFVRELFYKNIDALKSMLKFIYNHNTQCKIVTISTPTIDKIRFILDNPKDSDIKIKPFMMGRVINVKKFIEDIDIENDINSSFNLLIEDKFIDENNGLFKISIQNKKVSVEQLDKKGAEKPQEDFDIKLDINTLTQLSFSYIDVNEAIFLNDIKDVSEETLETLNCIFSKKNNYINEYI | not soluble
ARVDQTPQRITKETGESLTINCVVRDSRCVLSTGYWYRKPPGSRNEESISDGGRYVETVNRGSKSFSLRINDLTVKDSGTYRCKPESRYGSYDAVCAALNDQYGGGTVVTVNAAAHHHHHH | soluble
MILLPLHCGHVPCFPPLELPVTHVAVIGAGFSGLAAALRLAQAGAQVTVLDALDRPGGKAALGYDDFSSGPTVVTMPQIFAALHARLGWDAPALTPAHPTTTYHALSGRTFAPEALNVVGSLDPTMTQLSRAEGRRYRQLLFAARQMYSGAADTFLFAPPPTRTQLAQYALRAGRQAAPLTPLARYVRSGPFLTPFWLRFATYLGADPYRAPAVLHNIAWVELGDGIWHLPGGLLALAERLYAEALDRGVRFEFGIQVQHLSTHGGRVLGAHTSRGAFAADRWVSAADRALTLGWLGQDTPTTPRGVSGFALQLRLGEDLGQGHHIFWPADYAREWQDIRAGRLPSEPTLYLHLDGPRAFLLVNAPPDPRLGLSPERKADYARHLLQRLQSRFPLPVVEWQALAPADYARTGLGGALYGRAPHGLLGSLRPGWRLPQARNLVQVGGTVHPGGGVPLSLLSGWNGAGSLLGLDYDSLDGEKAFGKPAPAIKLEHHHHHH | not soluble
MGIDPGTGSMDVLGFDDESNNVFLEESIPRDEVTRDPSLPLRIVEEASAKVGGLDAVVAPSGYGMPLKRASETAPGDICEATFIHSSDEVLGLRIVGLRRLMALFASSDLPAWFTPGVIHLPTVPAWRKVGRIDMGTADKLYTVAAALRTEVEYHGVEPEAARFIAVEAGMAYTAAVAVVGGKVVDGVGGTSGFHGFMGGGAMDGEAAYALAAVAPRFSKSLLFKGGAGWVAGVSSPVELEEKASEGGGLEALEMLGEGVVKSVATLLPSLRPEGGEVRVYVSGRLFSLGRLGSELRSRLRDFISSIGLTPRVLTIERLGSKTKEGASGAALVASGLAGGRYKWLVDHLELERSSGSIFDHLPVDEDLRRAVRLEFRSCSPLGEA | not soluble
MGSDKIHHHHHHGCSDDFKSGLRLDGDVWVNSIRLDEYAGTVDYQNKAIVVGVPYDYDITRMVVTEMNLSEGAKASIAIGETIDFSLPVSLTVKNGDVQMSYTITVKRDEAKILTFKLNDTYVGKVDQLSKTISVVVPLTVDITQLKGTFTVTDGATVTPASGSIQDFTNPVTYTATYRSAVTPYVVTVTQGNVIPTAFVGTASSVSLLTSPEEKAAAQWMMDNVSMSEYISFKDVVDGKVDLGKYTAIWWHFHADNGDNPPLPDDAKAAAEKFKVYYQNGGNLLLTRYATFYIANLGIAKDERVPNNSWGGNEDSPEITSAPWSFLITGSESHPLFQDLRWKDGDKSTVYTCDAGYAITNSTAQWHIGTDWGGYDDLNAWRNLTGGIDLAHGGDGAVVIAEFEPRSNSGRTLCIGSGCYDWYGKGVDASADYYHYNVEQMTLNAINYLCK | not soluble
